Measurements published in patent CN111606996A.

Target: 4D5 CAR on NK92-4D5-Canada cells
Assay: flow cytometry on NK92-4D5-Canada cells, 2μg 5D1 + BV421 goat anti-mouse

阳性细胞数在总细胞中占比: 60.2%
B1: 靶向4D5的鼠源单克隆抗体5D1 (antibody, V domains shown)
VH: QVQLEQSGAEFVRPGALVRLSCKASGFNIKDYYIHWVKQRPEQGLEWIGWIYPENDDTIYDPKFQGKASLTADTSSNTAYLQLSSLTSEDSAVYFCVRSGSDSSFDYWGQGTTLTVSS
VL: DIVMTQSTASLAVSLGQRATISCRASESVDSYDNSFMHWFQQKPGQPPKLLIYLASNLESGVPARFSGSGSRTDFTLTIDPVEADDAATYYCQQNNEDPFTFGSGTKLEIKR
